Experimental data as given in patent US12139520B2 (priority 2020, dated 2024).
Numbered stars: 1 amine (or outer) side, 2 acyl side, 3 side chain; on linkers, the order of the positions; unused ones are H or OH. Bridge positions count the residues as written; N and C are the ends. Square brackets hold non-standard residues; d marks the D form. * marks the point of attachment. C20 diacid = O=C(O)CCCCCCCCCCCCCCCCCCC(=O)*; γGlu = O=C(O)[C@H](CCC(=O)[*:2])N[*:1]; Hyp = O=C(O)[C@@H]1C[C@@H](O)CN1

Columns and labels:
hAMY3R = molecular target: T1, hAMY3R (human, UniProt P30988); test: cell-based or functional assay
T1 sequence 1: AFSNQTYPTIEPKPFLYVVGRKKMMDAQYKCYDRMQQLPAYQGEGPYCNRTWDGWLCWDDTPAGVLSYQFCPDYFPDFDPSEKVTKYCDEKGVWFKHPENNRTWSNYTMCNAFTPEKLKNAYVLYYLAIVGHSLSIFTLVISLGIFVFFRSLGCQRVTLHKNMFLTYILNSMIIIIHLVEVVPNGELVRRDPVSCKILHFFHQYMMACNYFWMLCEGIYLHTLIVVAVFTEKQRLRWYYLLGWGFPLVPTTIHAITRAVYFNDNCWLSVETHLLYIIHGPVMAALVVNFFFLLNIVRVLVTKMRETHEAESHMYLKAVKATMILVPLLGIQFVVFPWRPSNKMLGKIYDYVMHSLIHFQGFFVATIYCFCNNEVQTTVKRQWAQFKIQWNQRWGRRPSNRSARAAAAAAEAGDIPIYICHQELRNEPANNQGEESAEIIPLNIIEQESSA
T1 sequence 2: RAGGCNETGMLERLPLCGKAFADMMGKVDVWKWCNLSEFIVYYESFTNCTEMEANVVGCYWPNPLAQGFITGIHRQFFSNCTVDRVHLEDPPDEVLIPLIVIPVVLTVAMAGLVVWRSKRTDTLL

hAM1R = hAM1R (human, UniProt Q16602); test: cell-based or functional assay

## {C20 diacid-γGlu}-GCRFATCTVQRLAHQIYQFTDKDKDNVAPRTKVGPQGY-NH2 (disulfide 2-7 (inferred); ends not checked) [SEQ ID NO: 380]
hAMY3R
  hAMY3R EC50 (cAMP): 0.031 nM
hAM1R
  hAM1R EC50 (cAMP): 0.162 nM

## {C20 diacid-γGlu}-GCRFGTCTVQRLANFLYQFTDKDKDNVAPRTNVGPQGY-NH2 (disulfide 2-7 (inferred); ends not checked) [SEQ ID NO: 386]
hAMY3R
  hAMY3R EC50 (cAMP): 0.039 nM
hAM1R
  hAM1R EC50 (cAMP): 7.35 nM

## {C20 diacid-γGlu}-GCRFGTCTVQRLAHFLYQFTDKDKDNVAPRTNIGPQGY-NH2 (disulfide 2-7 (inferred); ends not checked) [SEQ ID NO: 388]
hAMY3R
  hAMY3R EC50 (cAMP): 0.043 nM
hAM1R
  hAM1R EC50 (cAMP): 4.01 nM

## {C20 diacid-γGlu}-KCNFATCTVQRLAHQIYQFTDKDKDNVAPRTKVGSNGY-NH2 (disulfide 2-7 (inferred); ends not checked) [SEQ ID NO: 378]
hAMY3R
  hAMY3R EC50 (cAMP): 0.027 nM
hAM1R
  hAM1R EC50 (cAMP): 0.893 nM

## GCRFGTCTVQRLAHQIYQFTDKDKDNVAPRSKVSPNGY [SEQ ID NO: 384]
hAMY3R
  hAMY3R EC50 (cAMP): 0.036 nM
hAM1R
  hAM1R EC50 (cAMP): 1.09 nM

## GCRFGTCTVQRLAHQIYQFTDKDKDNVAPRTNIGPQGY [SEQ ID NO: 379]
hAMY3R
  hAMY3R EC50 (cAMP): 0.029 nM
hAM1R
  hAM1R EC50 (cAMP): 0.458 nM

## GCRFGTCTVQRLAHQIYQFTDKDKDNVAPRSNISPNGY [SEQ ID NO: 383]
hAMY3R
  hAMY3R EC50 (cAMP): 0.034 nM
hAM1R
  hAM1R EC50 (cAMP): 5.93 nM

## GCRFGTCTVQRLAHQIYQFTDKDKDNVAPRTKVSPNGY [SEQ ID NO: 385]
hAMY3R
  hAMY3R EC50 (cAMP): 0.036 nM
hAM1R
  hAM1R EC50 (cAMP): 7 nM

## GCRFGTCTVQRLAHQIYQFTDKDKDNVAPRSKIGPQGY [SEQ ID NO: 387]
hAMY3R
  hAMY3R EC50 (cAMP): 0.04 nM
hAM1R
  hAM1R EC50 (cAMP): 0.992 nM

## GCRFGTCTVQRLAHQIYQFTDKDKDNVAPRSNIGPQGY [SEQ ID NO: 382]
hAMY3R
  hAMY3R EC50 (cAMP): 0.034 nM
hAM1R
  hAM1R EC50 (cAMP): 5.12 nM

## {C20 diacid-γGlu}-KCNTATCTVNRLAHQIYQFTDKDKDNVAPPTNVGSNG[Hyp]-NH2 (disulfide 2-7 (inferred); ends not checked) [SEQ ID NO: 38]
hAMY3R
  hAMY3R EC50 (cAMP): 0.01 nM
hAM1R
  hAM1R EC50 (cAMP): > 5000 nM

## {C20 diacid-γGlu}-RCNTATCTVQRLAHQIYQFTDKDKDNVAPPTNVGSNG[Hyp]-NH2 (disulfide 2-7 (inferred); ends not checked) [SEQ ID NO: 39]
hAMY3R
  hAMY3R EC50 (cAMP): 0.01 nM
hAM1R
  hAM1R EC50 (cAMP): > 5000 nM

## {C20 diacid-γGlu}-KCNFATCATQRLANFLVQFTDKDKDNVAPRSKIGPQGY-NH2 (disulfide 2-7 (inferred); ends not checked) [SEQ ID NO: 389]
hAMY3R
  hAMY3R EC50 (cAMP): 0.045 nM
hAM1R
  hAM1R EC50 (cAMP): 1.04 nM

## GCRFGTCTVQRLAHFLYQFTDKDKDNVAPRTKIGSNGY [SEQ ID NO: 376]
hAMY3R
  hAMY3R EC50 (cAMP): 0.022 nM
hAM1R
  hAM1R EC50 (cAMP): 12 nM

## GCRFATCTVQRLAHFLYQFTDKDKDNVAPRTKVGPQGY [SEQ ID NO: 377]
hAMY3R
  hAMY3R EC50 (cAMP): 0.024 nM
hAM1R
  hAM1R EC50 (cAMP): 0.243 nM

## GCRFGTCTVQRLAHQIYQFTDKDKDNVAPRTNIGPNGY [SEQ ID NO: 381]
hAMY3R
  hAMY3R EC50 (cAMP): 0.032 nM
hAM1R
  hAM1R EC50 (cAMP): 7.61 nM
